Source: patent US20250154231A1
Like-named read-outs stand apart in the source and are kept apart here.

Experiments:
Test in all cases: cell-based or functional assay
[1] = molecular target: SARS-CoV-2 spike (S) protein, Omicron BA.1.1 (SARS-CoV-2) (UniProt P0DTC2)
[2] = molecular target: SARS-CoV-2 Omicron BA.2 spike (S) protein (SARS-CoV-2) (UniProt P0DTC2)
[3] = molecular target: SARS-CoV-2 spike (S) protein, Omicron BA.3 (SARS-CoV-2) (UniProt P0DTC2)
[4] = molecular target: SARS-CoV-2 Gamma spike (S) protein (SARS-CoV-2) (UniProt P0DTC2)
[5] = molecular target: SARS-CoV-2 Omicron BA.1.1 spike (S) protein (SARS-CoV-2) (UniProt P0DTC2)
[6] = molecular target: SARS-CoV-2 spike (S) protein, Omicron BA.2 (SARS-CoV-2) (UniProt P0DTC2)
[7] = molecular target: SARS-CoV-2 Omicron BA.1 spike (S) protein of the live isolate (SARS-CoV-2) (UniProt P0DTC2)
[8] = molecular target: SARS-CoV-2 spike (S) protein, Omicron BA.1 (SARS-CoV-2) (UniProt P0DTC2)
[9] = molecular target: SARS-CoV-2 Beta spike (S) protein (SARS-CoV-2) (UniProt P0DTC2)
[10] = molecular target: SARS-CoV-2 spike (S) protein, Victoria strain (SARS-CoV-2) (UniProt P0DTC2)
[11] = molecular target: SARS-CoV-2 Delta spike (S) protein (SARS-CoV-2) (UniProt P0DTC2)
[12] = molecular target: SARS-CoV-2 Victoria spike (S) protein (SARS-CoV-2) (UniProt P0DTC2)
[13] = molecular target: SARS-CoV-2 spike (S) protein, Omicron BA.4/5 (SARS-CoV-2) (UniProt P0DTC2)
[14] = molecular target: SARS-CoV-2 spike (S) protein, Omicron BA.4.6 (SARS-CoV-2) (UniProt P0DTC2)
[15] = molecular target: SARS-CoV-2 Alpha spike (S) protein (SARS-CoV-2) (UniProt P0DTC2)
[16] = molecular target: SARS-CoV-2 spike (S) protein, Omicron BA.1.1 (SARS-CoV-2) (UniProt P0DTC2); remark: listed apart in the source
[17] = molecular target: SARS-CoV-2 spike (S) protein, Omicron BA.3 (SARS-CoV-2) (UniProt P0DTC2); remark: listed apart in the source
[18] = molecular target: SARS-CoV-2 spike (S) protein, Omicron BA.1 (SARS-CoV-2) (UniProt P0DTC2); remark: listed apart in the source
[19] = molecular target: SARS-CoV-2 spike (S) protein, Victoria strain (SARS-CoV-2) (UniProt P0DTC2); remark: listed apart in the source
[20] = molecular target: SARS-CoV-2 spike (S) protein, Omicron BA.4/5 (SARS-CoV-2) (UniProt P0DTC2); remark: listed apart in the source
[21] = molecular target: SARS-CoV-2 spike (S) protein, Omicron BA.2.75 (SARS-CoV-2) (UniProt P0DTC2)
[22] = molecular target: SARS-CoV-2 spike (S) protein, Omicron BA.2.3.20 (SARS-CoV-2) (UniProt P0DTC2)
[23] = molecular target: SARS-CoV-2 spike (S) protein, Omicron BA.2.75.2 (SARS-CoV-2) (UniProt P0DTC2)
[24] = molecular target: SARS-CoV-2 spike (S) protein, Omicron BJ.1 (SARS-CoV-2) (UniProt P0DTC2)
[25] = molecular target: SARS-CoV-2 spike (S) protein, Omicron BA.2 (SARS-CoV-2) (UniProt P0DTC2); remark: listed apart in the source
[26] = molecular target: SARS-CoV-2 spike (S) protein, Victoria strain (SARS-CoV-2) (UniProt P0DTC2); remark: listed apart in the source
[27] = molecular target: SARS-CoV-2 spike (S) protein, Omicron BA.4/5 (SARS-CoV-2) (UniProt P0DTC2); remark: listed apart in the source
[28] = molecular target: SARS-CoV-2 spike (S) protein, Omicron BA.4.6 (SARS-CoV-2) (UniProt P0DTC2); remark: listed apart in the source
[29] = molecular target: SARS-CoV-2 spike (S) protein, Omicron BA.2.75 (SARS-CoV-2) (UniProt P0DTC2); remark: listed apart in the source
[30] = molecular target: SARS-CoV-2 spike (S) protein, Omicron BA.2 (SARS-CoV-2) (UniProt P0DTC2); remark: listed apart in the source

Work on S309 (antibody) yielded an IC50, pseudoviral neutralization [1] of 0.142 µg/mL, a pseudovirus neutralisation IC50 [1] of 0.138 µg/mL and an IC50, authentic virus neutralization [2] of 5.04 µg/mL. For the same substance, the IC50, pseudoviral neutralization [3] was 0.311 µg/mL, the pseudovirus neutralisation IC50 [3] was 0.228 µg/mL and the IC50, authentic virus neutralization [4] was 0.076 µg/mL. For the same substance, the IC50, authentic virus neutralization [5] was 1.12 µg/mL, the IC50, pseudoviral neutralization [6] was 0.638 µg/mL and the pseudovirus neutralisation IC50 [6] was 0.638 µg/mL. For the same substance, the IC50, authentic virus neutralization [7] was 0.256 µg/mL, the IC50, pseudoviral neutralization [8] was 0.113 µg/mL and the pseudovirus neutralisation IC50 [8] was 0.094 µg/mL. The IC50, authentic virus neutralization [9] was 0.082 µg/mL, the IC50, pseudoviral neutralization [10] was 0.079 µg/mL and the pseudovirus neutralisation IC50 [10] was 0.13 µg/mL. It also gave an IC50, authentic virus neutralization [11] of 0.113 µg/mL, an IC50, authentic virus neutralization [12] of 0.04 µg/mL and an IC50, pseudoviral neutralization [13] of 0.689 µg/mL. The pseudovirus neutralisation IC50 [13] was 1.04 µg/mL, the IC50, pseudoviral neutralization [14] was 1.03 µg/mL and the IC50, authentic virus neutralization [15] was 0.078 µg/mL. The pseudovirus neutralisation IC50 [16] was 0.142 µg/mL, the pseudovirus neutralisation IC50 [17] was 0.311 µg/mL and the pseudovirus neutralisation IC50 [18] was 0.113 µg/mL. The pseudovirus neutralisation IC50 [19] was 0.079 µg/mL, the pseudovirus neutralisation IC50 [20] was 0.689 µg/mL and the pseudovirus neutralisation IC50 [21] was 0.202 µg/mL. The IC50, pseudoviral neutralization [22] was 0.977 µg/mL, the IC50, pseudoviral neutralization [23] was 0.465 µg/mL and the IC50, pseudoviral neutralization [24] was 0.431 µg/mL. It also gave an IC50, pseudoviral neutralization [25] of 0.638 µg/mL, an IC50, pseudoviral neutralization [26] of 0.079 µg/mL and an IC50, pseudoviral neutralization [27] of 0.689 µg/mL. The IC50, pseudoviral neutralization [28] was 1.03 µg/mL and the IC50, pseudoviral neutralization [29] was 0.202 µg/mL.
For Ly-CoV1404 (antibody), the IC50, pseudoviral neutralization [1] was 0.001 µg/mL, the IC50, pseudoviral neutralization [3] was 0.002 µg/mL and the IC50, pseudoviral neutralization [6] was 0.001 µg/mL. It also gave an IC50, pseudoviral neutralization [8] of 0.002 µg/mL, an IC50, pseudoviral neutralization [10] of 0.001 µg/mL and an IC50, pseudoviral neutralization [13] of 0.002 µg/mL. It also gave an IC50, pseudoviral neutralization [14] of 0.001 µg/mL, a pseudovirus neutralisation IC50 [16] of 0.001 µg/mL and a pseudovirus neutralisation IC50 [17] of 0.002 µg/mL. For the same substance, the pseudovirus neutralisation IC50 [30] was 1 ng/mL, the pseudovirus neutralisation IC50 [18] was 0.002 µg/mL and the pseudovirus neutralisation IC50 [19] was 0.001 µg/mL. It also gave a pseudovirus neutralisation IC50 [20] of 0.002 µg/mL and a pseudovirus neutralisation IC50 [21] of 0.002 µg/mL.
